Assay results as given in PMC5785977, “A dual role for the N-terminal domain of the IL-3 receptor in cell signalling” (Nature Communications, 2018).
Substitutions are numbered along the chain they refer to. Numbers in names are those of the source. Like-named read-outs stand apart in the source and are kept apart here. Each block holds one molecule with its values, some of them ahead of it.

Columns and labels:
IL5Rα:βc (Homo sapiens) = IL5Rα:βc (Homo sapiens) (UniProt Q01344); conditions: cited from earlier work
IL5Rα:βc (Homo sapiens), sequence (Q01344 21-342): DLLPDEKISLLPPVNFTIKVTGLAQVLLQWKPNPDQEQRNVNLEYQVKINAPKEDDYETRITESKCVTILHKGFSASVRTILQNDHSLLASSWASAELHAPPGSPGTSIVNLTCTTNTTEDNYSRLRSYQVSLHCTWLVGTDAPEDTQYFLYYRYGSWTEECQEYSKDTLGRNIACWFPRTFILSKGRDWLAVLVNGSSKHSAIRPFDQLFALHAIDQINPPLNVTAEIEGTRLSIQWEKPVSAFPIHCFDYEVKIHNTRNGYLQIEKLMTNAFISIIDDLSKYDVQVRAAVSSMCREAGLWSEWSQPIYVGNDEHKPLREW
GMRα:βc (Homo sapiens) = GMRα:βc (Homo sapiens) (UniProt P15509); conditions: cited from earlier work
GMRα:βc (Homo sapiens), sequence (P15509 23-320): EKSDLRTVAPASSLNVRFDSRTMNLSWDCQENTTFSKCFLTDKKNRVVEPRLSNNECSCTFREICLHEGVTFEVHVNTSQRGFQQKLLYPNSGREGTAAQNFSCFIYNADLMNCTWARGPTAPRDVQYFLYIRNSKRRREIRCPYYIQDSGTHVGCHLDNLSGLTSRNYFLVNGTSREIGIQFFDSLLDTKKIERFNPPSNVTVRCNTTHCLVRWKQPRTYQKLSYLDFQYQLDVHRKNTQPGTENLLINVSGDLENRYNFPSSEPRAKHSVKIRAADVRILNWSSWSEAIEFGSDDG

IL3Rα ECD (Homo sapiens) [1] = target: IL3Rα ECD (Homo sapiens) (UniProt P26951); conditions: cited from earlier work
IL3Rα:βc (Homo sapiens) = IL3Rα:βc (Homo sapiens) (UniProt P26951); conditions: cited from earlier work
IL3Rα ECD (Homo sapiens) [2] = target: IL3Rα ECD (Homo sapiens) (UniProt P26951); assay: SPR; conditions: cited from earlier work
IL3Rα ECD (Homo sapiens) [3] = target: IL3Rα ECD (Homo sapiens) (UniProt P26951); assay: SPR; conditions: cited from earlier work; remark: listed apart in the source
IL3Rα ECD (Homo sapiens) [4] = target: IL3Rα ECD (Homo sapiens) (UniProt P26951); assay: SPR; conditions: cited from earlier work; remark: listed apart in the source
IL3Rα ECD (Homo sapiens) [5] = target: IL3Rα ECD (Homo sapiens) (UniProt P26951); assay: SPR; conditions: cited from earlier work; remark: listed apart in the source
IL3Rα ECD (Homo sapiens) [6] = target: IL3Rα ECD (Homo sapiens) (UniProt P26951); assay: SPR; conditions: cited from earlier work; remark: listed apart in the source
[7] = target: IL3Rα + βc co-expressed on COS cells (human) (UniProt P26951)
[8] = target: IL3Rα C76A,C195A + βc co-expressed on COS cells (human) (UniProt P26951)
[9] = target: IL3Rα D197L + βc co-expressed on COS cells (human) (UniProt P26951)
[10] = target: IL3Rα SP2 + βc co-expressed on COS cells (human) (UniProt P32927)
[11] = target: IL3Rα + βc co-expressed on COS cells (human) (UniProt P26951); assay: radioligand binding; saturation binding of radioiodinated (125I) cytokine to transfected COS cells; dissociation constants by EBDA and LIGAND
[12] = target: IL3Rα C76A,C195A + βc co-expressed on COS cells (human) (UniProt P26951); assay: as above
[13] = target: IL3Rα D197L + βc co-expressed on COS cells (human) (UniProt P26951); assay: as above
[14] = target: IL3Rα SP2 + βc co-expressed on COS cells (human) (UniProt P32927); assay: as above
[15] = target: full-length IL3Rα expressed alone on COS cells (human) (UniProt P26951); assay: as above
[16] = target: IL-3 receptor on TF-1Hi cells (overexpressed IL3Rα) (human | human (endogenous in TF-1)) (UniProt P26951); assay: radioligand binding; saturation binding of radioiodinated (125I) cytokine to TF-1Hi cells (overexpressed IL3Rα); dissociation constants by EBDA and LIGAND
[17] = target: T1, endogenous IL-3 receptor on TF-1 cells (human (endogenous in TF-1), UniProt P26951 19-378; P32927 17-897); assay: radioligand binding; saturation binding of radioiodinated (125I) cytokine to TF-1 cells (endogenous receptor); dissociation constants by EBDA and LIGAND; conditions: one partner purified
T1 construct: IL-3 receptor α-subunit, endogenous in the human TF-1 erythroleukaemic cell line; beta common (βc) receptor subunit, endogenous in the human TF-1 cell line; the discussion notes that TF-1 cells also express transcripts of the IL3Rα SP2 splice variant; also called TF-1 Endogenous; source: endogenous, on TF-1 cells

[18] = target: T2, IL3Rα + βc co-expressed on CTLL-2 cells (human, UniProt P26951 19-378; P32927 17-897, N144 and R145 to K144); assay: radioligand binding; saturation binding of radioiodinated (125I) cytokine to the CTLL-2 cell line expressing IL3Rα and βc; dissociation constants by EBDA and LIGAND; conditions: one partner purified
T2 construct: IL-3 receptor α-subunit, human, full-length; the cDNA of the site 1 functional studies in CTLL-2 encodes a splice variant that changes N144 and R145 to K144; beta common (βc) receptor subunit, human, wild-type; also called CTLL-2 IL3Rα + βc; source: CTLL-2 cells, retrovirally transduced, on cells
T2 sequence (looked up) 1: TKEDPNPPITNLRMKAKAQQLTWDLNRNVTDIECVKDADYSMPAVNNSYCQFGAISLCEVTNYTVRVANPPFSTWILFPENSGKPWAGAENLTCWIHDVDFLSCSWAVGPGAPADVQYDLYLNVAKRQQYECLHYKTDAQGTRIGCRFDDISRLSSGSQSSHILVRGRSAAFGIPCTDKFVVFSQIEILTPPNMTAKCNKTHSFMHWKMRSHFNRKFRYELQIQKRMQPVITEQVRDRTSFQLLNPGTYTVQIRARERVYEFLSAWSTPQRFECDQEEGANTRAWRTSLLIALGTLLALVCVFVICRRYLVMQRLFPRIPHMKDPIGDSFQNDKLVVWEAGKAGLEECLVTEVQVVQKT
T2 sequence (looked up) 2: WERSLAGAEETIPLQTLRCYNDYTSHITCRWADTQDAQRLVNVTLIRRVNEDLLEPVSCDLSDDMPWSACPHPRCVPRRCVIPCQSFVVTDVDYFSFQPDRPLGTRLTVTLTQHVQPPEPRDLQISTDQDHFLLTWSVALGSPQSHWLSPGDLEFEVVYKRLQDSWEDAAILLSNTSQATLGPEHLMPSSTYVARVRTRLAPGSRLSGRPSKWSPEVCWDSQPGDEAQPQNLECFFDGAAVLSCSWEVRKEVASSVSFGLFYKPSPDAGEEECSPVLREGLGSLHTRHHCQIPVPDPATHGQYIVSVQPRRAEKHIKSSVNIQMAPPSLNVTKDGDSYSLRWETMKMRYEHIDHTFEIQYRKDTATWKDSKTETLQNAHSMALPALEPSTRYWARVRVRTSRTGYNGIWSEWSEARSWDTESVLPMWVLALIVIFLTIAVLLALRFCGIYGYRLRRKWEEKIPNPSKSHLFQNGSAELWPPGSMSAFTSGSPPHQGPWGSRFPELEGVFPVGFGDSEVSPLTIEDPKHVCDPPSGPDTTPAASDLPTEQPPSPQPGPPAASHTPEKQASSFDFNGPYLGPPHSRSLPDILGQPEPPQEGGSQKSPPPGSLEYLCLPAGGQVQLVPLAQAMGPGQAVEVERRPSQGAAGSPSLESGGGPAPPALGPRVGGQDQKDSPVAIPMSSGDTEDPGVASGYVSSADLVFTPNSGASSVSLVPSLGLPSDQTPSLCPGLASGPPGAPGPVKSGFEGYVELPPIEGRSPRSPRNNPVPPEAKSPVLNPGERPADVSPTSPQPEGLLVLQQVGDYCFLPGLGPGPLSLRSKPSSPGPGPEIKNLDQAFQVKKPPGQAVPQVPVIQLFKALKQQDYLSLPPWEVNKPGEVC

Molecule: IL-5 (from UniProt P05113)
Kd (IL5Rα:βc (Homo sapiens)): 0.2 nM

Molecule: GM-CSF (from UniProt P04141)
Kd (GMRα:βc (Homo sapiens)): 0.2 nM

Molecule: IL-3 (from UniProt P08700)
Kd (IL3Rα ECD (Homo sapiens) [1]): 510 nM
Kd (IL3Rα:βc (Homo sapiens)): 0.2 nM
Kd (IL3Rα ECD (Homo sapiens) [2]): > 5000 nM
Kd (IL3Rα ECD (Homo sapiens) [3]): > 5000 nM
Kd (IL3Rα ECD (Homo sapiens) [4]): 220 nM
Kd (IL3Rα ECD (Homo sapiens) [5]): > 5000 nM
Kd (IL3Rα ECD (Homo sapiens) [6]): > 5000 nM

proliferation of FDH cells co-expressing βc and wild-type IL3Rα, ED50 of the IL-3 dose–response [7]: 0.29 ng/mL
proliferation of FDH cells co-expressing βc and IL3Rα C76A,C195A, ED50 of the IL-3 dose–response [8]: 12.2 ng/mL
proliferation of FDH cells co-expressing βc and IL3Rα D197L, ED50 of the IL-3 dose–response [9]: 1.71 ng/mL
proliferation of FDH cells co-expressing βc and IL3Rα SP2, ED50 of the IL-3 dose–response [10]: 6.94 ng/mL
Kd [11]: 0.48 nM
Kd [12]: 1.1 nM
Kd [13]: 4.37 nM
Kd [14]: 7.61 nM
Kd [15]: 141 nM
Kd [16]: 0.14 nM
Kd [17]: 2.06 nM
Kd [18]: 0.34 nM
B1: wild-type human IL-3, residues W13 to Q125 of the mature peptide with a W13Y mutation and a GAMGS N-terminal tail (ligand)
chain: GAMGSYVNCSNMIDEIITHLKQPPLPLLDFNNLNGEDQDILMENNLRRPNLEAFNRAVKSLQNASAIESILKNLLPCLPLATAAPTRHPIHIKDGDWNEFRRKLTFYLKTLENAQAQQ
modifications: radioiodinated with 125I in the cell-surface binding assays (residue not stated)
notes: N-terminal tail arising from the expression plasmid, left after TEV cleavage; interleukin-3, human, residues W13 to Q125 of the mature peptide; numbers count on: the mature protein; also called wild-type IL-3; interleukin-3; source: E. coli BL21 CodonPlus (DE3)-RIPL, purified (HisTrap, TEV digest, SEC, reversed-phase); not shown: Nus, N-terminal, cleaved; 6xHis, N-terminal, cleaved

proliferation of FDH cells co-expressing βc and wild-type IL3Rα, ED50 of the IL-3 K116W dose–response [7]: 0.37 ng/mL
proliferation of FDH cells co-expressing βc and IL3Rα C76A,C195A, ED50 of the IL-3 K116W dose–response [8]: 2.51 ng/mL
proliferation of FDH cells co-expressing βc and IL3Rα D197L, ED50 of the IL-3 K116W dose–response [9]: 0.6 ng/mL
proliferation of FDH cells co-expressing βc and IL3Rα SP2, ED50 of the IL-3 K116W dose–response [10]: 2.19 ng/mL
Kd [11]: 0.43 nM
Kd [12]: 0.94 nM
Kd [13]: 1.6 nM
Kd [14]: 2.98 nM
Kd [15]: 17.8 nM
Kd [16]: 0.065 nM
Kd [17]: 0.35 nM
Kd [18]: 0.14 nM
B2: human IL-3 K116W, residues W13 to Q125 of the mature peptide with a W13Y mutation and a GAMGS N-terminal tail (ligand)
chain: B1 chain with K109W
modifications: radioiodinated with 125I in the cell-surface binding assays (residue not stated)
notes: N-terminal tail arising from the expression plasmid, left after TEV cleavage; interleukin-3, human, residues W13 to Q125 of the mature peptide; numbers count on: the mature protein; also called IL-3 K116W superkine; IL-3 superkine; source: E. coli BL21 CodonPlus (DE3)-RIPL, purified (HisTrap, TEV digest, SEC, reversed-phase); not shown: Nus, N-terminal, cleaved; 6xHis, N-terminal, cleaved
